As usually defined, the Kd is the equilibrium constant for the complex coming apart. High values mean weaker binding, low ones tighter binding.

The record followed here is article PMC9881148.

Data set [1] deals with p53WT (Homo sapiens) (UniProt P04637). The data set is described as follows: FCS. As to conditions: poly(ADP-ribose), 50 mM Tris pH 7.4, 150 mM NaCl, 3 mM DTT, 0.05% Tween20, 1 h room temperature, 10 nM nucleic acid.
Data set [2] concerns histone H1 (Homo sapiens). The data set can be described thus: FCS. Particulars: poly(ADP-ribose), 50 mM Tris pH 7.4, 150 mM NaCl, 3 mM DTT, 0.05% Tween20, 1 h room temperature, 10 nM nucleic acid.

p53WT (Homo sapiens), sequence (P04637 whole entry): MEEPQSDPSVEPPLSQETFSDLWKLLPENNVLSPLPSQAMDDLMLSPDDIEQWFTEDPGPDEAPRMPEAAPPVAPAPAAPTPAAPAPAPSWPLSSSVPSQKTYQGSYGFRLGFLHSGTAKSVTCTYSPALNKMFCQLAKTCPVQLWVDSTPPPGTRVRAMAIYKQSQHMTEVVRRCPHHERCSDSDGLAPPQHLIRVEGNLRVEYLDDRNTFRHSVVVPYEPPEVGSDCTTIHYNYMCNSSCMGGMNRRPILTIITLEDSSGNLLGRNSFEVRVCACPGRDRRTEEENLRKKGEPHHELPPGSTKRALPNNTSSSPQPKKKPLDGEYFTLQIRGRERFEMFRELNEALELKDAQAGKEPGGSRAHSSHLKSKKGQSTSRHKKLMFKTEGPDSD

In the case of PARWT 50-mer, in data set [1] (first binding event, no saturation up to 5 uM, linear), the dissociation constant (Kd) was found to be 8 nM. PARWT 30-mer registered a Kd in data set [1] (linear) of 28 nM. The substance PARHB 50-mer showed a Kd in data set [1] (hyperbranched) of 30 nM.

Take PARHB 30-mer: the Kd in data set [1] (hyperbranched) is 99 nM. Consider PARWT 40-mer, for which the Kd in data set [1] (linear) came out at 7 nM. PARHB 40-mer showed a Kd in data set [1] (hyperbranched) of 41 nM. This counts as double-digit nanomolar. Turning to PARWT 20-mer, the Kd in data set [2] (also printed as 4 nM in the comparison with PARHB, linear) came to 5 nM. In other words, the single-digit nanomolar range. Take PARHB 20-mer: the dissociation constant Kd in data set [2] (hyperbranched) is 8 nM.
